The record followed here is article PMC3701661, “The Serine Protease Domain of MASP-3: Enzymatic Properties and Crystal Structure in Complex with Ecotin” (PLoS ONE, 2013).

The target of data set [1] is T1, MASP-3 serine protease (SP) domain (human, UniProt P48740-2 450-728, three N-linked oligosaccharide chains comprising two N-acetylglucosamine and five mannose residues).
T1 sequence (looked up): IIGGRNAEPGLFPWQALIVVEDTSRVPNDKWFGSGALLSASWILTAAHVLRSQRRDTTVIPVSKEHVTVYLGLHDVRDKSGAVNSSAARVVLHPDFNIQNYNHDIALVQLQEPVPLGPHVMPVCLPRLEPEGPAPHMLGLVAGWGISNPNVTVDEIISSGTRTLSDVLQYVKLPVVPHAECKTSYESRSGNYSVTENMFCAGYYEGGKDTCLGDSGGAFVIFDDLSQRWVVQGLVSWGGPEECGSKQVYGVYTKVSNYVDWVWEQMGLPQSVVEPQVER
The experiment in a line: cell-based or functional assay.

Data set [2] deals with the molecule itself. The experiment in a line: SEC; MASP-3 SP and ecotin preincubated 20 min at room temperature (equimolar, 225 pmol; also various molar ratios), TSK G3000 SW column in 145 mM NaCl, 50 mM triethanolamine-HCl, pH 7.4, 1 ml/min; peaks analysed by N-terminal sequencing and SDS-PAGE.
The target in data set [3] is T2, Coagulation factor XIa (human plasma) (human, UniProt P03951 19-387; P03951 388-625).
T2 construct: coagulation factor XIa heavy chain, human plasma; coagulation factor XIa light chain (catalytic domain), human plasma; also called fXIa; source: bought: Calbiochem (human plasma)
T2 sequence (P03951 19-387, chain 1 of 2): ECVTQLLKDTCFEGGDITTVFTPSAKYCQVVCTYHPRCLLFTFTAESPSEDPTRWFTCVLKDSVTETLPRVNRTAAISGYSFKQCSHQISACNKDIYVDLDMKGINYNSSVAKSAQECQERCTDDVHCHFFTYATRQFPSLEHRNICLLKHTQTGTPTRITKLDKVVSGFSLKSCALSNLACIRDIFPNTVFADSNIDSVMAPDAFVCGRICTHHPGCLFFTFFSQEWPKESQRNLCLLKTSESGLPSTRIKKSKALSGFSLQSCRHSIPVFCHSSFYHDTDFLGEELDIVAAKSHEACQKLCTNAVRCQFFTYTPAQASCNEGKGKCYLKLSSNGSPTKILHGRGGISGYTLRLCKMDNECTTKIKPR
T2 sequence (P03951 388-625, chain 2 of 2): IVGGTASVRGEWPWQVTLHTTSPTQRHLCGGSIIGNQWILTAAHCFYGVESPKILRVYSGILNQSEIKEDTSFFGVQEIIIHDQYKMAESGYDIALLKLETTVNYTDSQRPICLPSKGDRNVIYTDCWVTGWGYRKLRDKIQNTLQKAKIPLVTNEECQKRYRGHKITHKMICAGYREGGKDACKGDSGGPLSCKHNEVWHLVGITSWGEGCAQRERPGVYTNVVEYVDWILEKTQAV
Briefly: SPR; ecotin (1,000 RU) amine-coupled on a CM5 chip; proteases injected at 20 µl/min in 145 mM NaCl, 50 mM triethanolamine-HCl, pH 7.4, 0.005% surfactant P20; global fit to a 1:1 Langmuir model, at least five concentrations; apparent KD = kd/ka. Particulars: both partners purified.

Data set [4] has as its target T3, MASP-2 CCP1/2-ap-SP fragment (human, UniProt O00187 298-686).
T3 construct: also called CCP1/2-ap-SP fragment of MASP-2; catalytic domain of MASP-2; source: baculovirus-infected insect cells, purified
The data set is described as above. Particulars: both partners purified.

Data set [5] addresses T1, MASP-3 serine protease (SP) domain. The description is as above. Particulars: both partners purified.

T3 sequence (O00187 298-686): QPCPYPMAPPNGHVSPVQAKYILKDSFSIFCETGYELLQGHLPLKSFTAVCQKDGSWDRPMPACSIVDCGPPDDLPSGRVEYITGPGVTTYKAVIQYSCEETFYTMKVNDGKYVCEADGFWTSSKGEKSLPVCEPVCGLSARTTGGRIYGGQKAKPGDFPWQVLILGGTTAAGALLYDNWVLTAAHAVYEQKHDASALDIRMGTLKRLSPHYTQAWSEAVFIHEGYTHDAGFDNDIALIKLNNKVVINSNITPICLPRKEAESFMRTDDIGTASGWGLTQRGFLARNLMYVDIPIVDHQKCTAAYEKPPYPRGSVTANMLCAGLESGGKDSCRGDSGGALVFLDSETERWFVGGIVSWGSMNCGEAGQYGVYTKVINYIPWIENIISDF

B1: Ecotin (E. coli pan-serine protease inhibitor) (natural protein)
chain: not shown
notes: residues numbered 1 onwards in the structure (P1 residue Met84); Homodimer (molecular mass 32 kDa as printed); also called ecotin dimer; source: bought: Gentaur Molecular Products
As to B1, the “inhibition of FGR-AMC cleavage by the MASP-3 SP domain after incubation with ecotin at a 1:1 molar ratio” value in data set [1] turned out to be 82%. For the same molecule, the stoichiometry N (in general, the number of molecules, sites or subunits per partner or assembly) in data set [2] is 2. Besides, the results for the Kd in data set [3], in data set [4] and in data set [5] were 1.38 nM, 24.7 nM and 601 nM, respectively. For the same molecule, the results for the koff in data set [3], in data set [4] and in data set [5] were 0.000169 s⁻¹, 0.00228 s⁻¹ and 0.000806 s⁻¹, respectively. Further, the kon (in general, the rate constant with which the complex forms) in data set [3] is 123000 M⁻¹ s⁻¹; in data set [4] it was 104000 M⁻¹ s⁻¹; in data set [5] it was 1340 M⁻¹ s⁻¹.
